Data taken from paper PMC3954913 (Molecular microbiology, 2014).

Molecular target: T1, pallilysin (Tp0751_C24-P237) (Treponema pallidum, UniProt O83732 24-237)
T1 sequence (looked up): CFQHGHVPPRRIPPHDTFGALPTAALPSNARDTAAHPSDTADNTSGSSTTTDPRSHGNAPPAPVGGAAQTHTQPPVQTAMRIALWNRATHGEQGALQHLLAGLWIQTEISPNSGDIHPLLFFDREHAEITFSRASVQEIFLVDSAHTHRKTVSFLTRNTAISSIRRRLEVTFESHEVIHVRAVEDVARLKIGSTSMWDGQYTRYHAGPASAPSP
Test: dynamic light scattering

B1: recombinant Tp0750_G23-D223 (natural protein, UniProt O83731 23-223, looked up)
chain: GERTVPVDIFLMIDKSRSMQEPGKFSSLHRWVRDEFVSSMTIQGDWITVYQFYEKPEELITLTLRSEQDRDKIISVVDSIVPNGRYTDIGRALDTVWEIQEKRKDNNRHKVLLLVTDLEHDAPLTSKYRGKQRSFQSPYLVRARRVKHDNWYEITLDMAVHDRVAHTARELYRSIAAAHSKRPTPTPPAKESSPRYTPSLD
binding result: binds
